In patent US20080102065A1 (published 2008):
Changes are numbered by the printed parent chain. Values belong to the binder of their own block, whether it stands above or below them.

Key:
mouse EpoR (muEpoR) = biological target: T1, mouse EpoR (muEpoR) (mouse, UniProt P14753 25-249, limits assumed); assay: ELISA on coated muEpoR, scFv-Fc at 5 µg/ml (Example 17)
T1 sequence (looked up): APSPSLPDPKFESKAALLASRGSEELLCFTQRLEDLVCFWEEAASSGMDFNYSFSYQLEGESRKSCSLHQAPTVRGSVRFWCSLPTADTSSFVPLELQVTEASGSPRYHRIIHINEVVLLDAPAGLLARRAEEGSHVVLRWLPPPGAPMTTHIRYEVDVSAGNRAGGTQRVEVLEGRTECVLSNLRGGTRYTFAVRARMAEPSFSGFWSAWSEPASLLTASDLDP

[1] = biological target: T2, cynomolgus monkey EpoR (cynoEpoR) (cynomolgus monkey, UniProt A0A2K5WKK4 25-250); assay: SPR, Biacore T100; scFv-Fc captured on anti-human IgG Fc CM5 chip, EpoR as analyte; steady-state fit; steady-state fit; cyno EpoR
T2 construct: Soluble protein (coated in ELISA, analyte in SPR)
T2 sequence: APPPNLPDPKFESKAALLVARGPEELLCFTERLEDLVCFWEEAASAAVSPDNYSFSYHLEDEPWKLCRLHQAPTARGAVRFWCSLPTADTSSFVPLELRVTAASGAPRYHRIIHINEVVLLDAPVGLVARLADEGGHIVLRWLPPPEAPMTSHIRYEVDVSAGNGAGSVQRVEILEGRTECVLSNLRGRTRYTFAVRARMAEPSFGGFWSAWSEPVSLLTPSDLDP

[2] = biological target: T3, huEpoR protein (soluble human erythropoietin receptor) (human, UniProt P19235 25-250, limits assumed); assay: SPR, Biacore T100; scFv-Fc captured on anti-human IgG Fc CM5 chip, EpoR as analyte; 1:1 fit;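 further: measured at 25 °C in HBS-EP buffer with 0.1 mg/ml BSA, flowed at 50 µl/min, 1 min association then dissociation (10 min human, 5 min cyno EpoR)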
T3 construct: also called soluble huEpoR; biotinylated huEpoR
T3 sequence (looked up): T2 sequence with V19A, A47G, S49G, D51G, H58Q, I112V, G135S, I138V, A148T

[3] = biological target: T4, huEpoR expressed on the cell surface (UT-7 cells) (human, UniProt P19235 25-508); assay: cell-based or functional assay
T4 sequence (looked up): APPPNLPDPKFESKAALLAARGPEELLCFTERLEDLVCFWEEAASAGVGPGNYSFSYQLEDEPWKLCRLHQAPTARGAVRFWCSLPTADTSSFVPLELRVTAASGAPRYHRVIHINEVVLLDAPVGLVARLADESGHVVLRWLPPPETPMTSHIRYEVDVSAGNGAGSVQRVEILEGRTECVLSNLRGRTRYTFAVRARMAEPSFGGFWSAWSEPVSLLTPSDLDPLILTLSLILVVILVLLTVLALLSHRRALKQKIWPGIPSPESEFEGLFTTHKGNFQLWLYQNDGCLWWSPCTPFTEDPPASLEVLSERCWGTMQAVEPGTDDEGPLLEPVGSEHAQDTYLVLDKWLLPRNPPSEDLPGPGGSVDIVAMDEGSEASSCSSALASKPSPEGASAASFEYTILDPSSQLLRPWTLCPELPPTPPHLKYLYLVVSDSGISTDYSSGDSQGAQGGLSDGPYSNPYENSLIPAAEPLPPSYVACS

[4] = biological target: T5, biotinylated mouse EpoR-Fc protein (muEpoR-Fc) (mouse, UniProt P14753 25-249, limits assumed, biotinylated); assay: ELISA, antibody coated at 1 µg/ml, biotinylated muEpoR-Fc at 5 µg/ml, streptavidin-HRP
T5 construct: also called mouse EpoR (muEpoR); not shown: Fc part
T5 sequence (looked up): T1 sequence (looked up)

- binding result (mouse EpoR (muEpoR)): no binding (tested: 5 µg/ml)
- Kd [1]: 4890 nM
- Kd [2]: 847 nM
- koff [2]: 0.558 s⁻¹
- kon [2]: 659000 M⁻¹ s⁻¹
- Average EC50 (nM), UT-7-luciferase (STAT5 reporter) assay [3]: 0.0154 nM
- Ratio (EC50 of Epo / EC50 of the scFv-Fc), UT-7-luciferase assay [3]: 0.623
B1: Mxb 318 (clone 318 scFv-Fc protein) (Fc fusion)
VH: QVQLVESGGGLVQPGGSLRLSCAVSGFTFSKYWMTWVRQAPGKGLEWVANIKPDGSEKYYVESVKGRFTISRDNAKNSVYLQMNSVRAEDTAVYYCARVSRGGSFSDWGQGTLVTVSS
VL: QSVLTQPPSASGSPGQSVTISCTGTSSDVGGYNYVSWYQQHPGRAPKLIIYEVSKRPSGVPDRFSGSKSGNTASLTVSGLQADDEADYYCNSYAGSIYVFGSGTKVTVL
notes: Tested as scFv-Fc (maxibody) with an Fc derived from human IgG1

- binding result (mouse EpoR (muEpoR)): no binding (tested: 5 µg/ml)
- Kd [1]: 5810 nM
- Kd [2]: 378 nM
- koff [2]: 0.203 s⁻¹
- kon [2]: 536000 M⁻¹ s⁻¹
- Average EC50 (nM), UT-7-luciferase (STAT5 reporter) assay [3]: 0.11 nM
- Ratio (EC50 of Epo / EC50 of the scFv-Fc), UT-7-luciferase assay [3]: 0.088
B5: Mxb 34 (clone 34 scFv-Fc protein) (Fc fusion)
VH: QVQLQQSGAEVKKPGASVKVSCKASGYTFSGYYMHWVRQAPGQGLEWMGWINPNSGSTNYAQKFLGRVTMTRDTSISTAYMELSSLRSDDTAVYYCARGHSGDYFDYWGQGTLVTVSA
VL: EIVLTQSPSSLSASVGDRVTITCRASQSVSSWLAWYQQRPGQAPKLLIYAARLRGGGPSRFSGSGSGTEFTLTISSLQPEDFATYFCQQSYSTPISFGGGTKLEIK
notes: as for B1

- binding result [4]: binds
B7: clone 10 IgG2 protein (antibody, V domains shown)
VH: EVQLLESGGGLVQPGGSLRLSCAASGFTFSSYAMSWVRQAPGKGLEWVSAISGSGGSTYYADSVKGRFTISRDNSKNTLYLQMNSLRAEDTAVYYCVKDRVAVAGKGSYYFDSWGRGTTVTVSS
VL: QSVLTQPPSVSEAPGQRVTIACSGSSSNIGNNAVSWYQQLPGKAPTLLIYYDNLLPSGVSDRFSGSKSGTSASLAISGLQSEDEADYYCAAWDDSLNDWVFGGGTKVTVL
notes: Human IgG2 (VH in an IgG2 heavy chain expression vector; light chain constant type matches the variable light chain isotype)

Second part, the binder before the results:

B2: clone 5 IgG2 protein (antibody, V domains shown)
VH: B1 VH with Q1E, V24A, K31S, T35S, E62D, V86L, F105Y
VL: QSALTQPASVSGSPGQSITISCTGTSSDVGGYIYVSWYQQHPGKAPKLMIYDVSRRPSGISDRFSGSKSGNTASLTISGLQAEDEADYYCNSYTTLSTWLFGGGTKVTVL
notes: Human IgG2 (VH in an IgG2 heavy chain expression vector; light chain constant type matches the variable light chain isotype); also called IgG2 5; IgG25
- binding result [4]: binds

B3: clone 2 IgG2 protein (antibody, V domains shown)
VH: B1 VH with Q1E, E6Q, V24A, K31S, T35S, E62D, V86L, F105Y
VL: QSVLTQPPSASGSPGQSVTISCTGTSSDVGGYNYVSWYQQHPGKAPKLMIYEVSKRPSGVPDRFSGSKSGNTASLTVSGLQPEDEADYYCSSYAGRNWVFGGGTQLTVL
notes: Human IgG2 (VH in an IgG2 heavy chain expression vector; light chain constant type matches the variable light chain isotype); also called IgG2 2; IgG22
- binding result [4]: binds

B4: clone 7 IgG2 protein (antibody, V domains shown)
VH: B1 VH with Q1E, E6Q, V24A, K31S, T35S, E62D, V86L, F105Y, Q110K
VL: QSALTQPASVSGSPGQSIIISCTGTRSDIGGYNYVSWYQHHPGRAPKLIIFDVNNRPSGVSHRFSGSKSGNTASLTISGLQAEDEADYYCNSFTDSRTWLFGGGTKLTVL
notes: as for B7
- binding result [4]: binds

B6: clone 30 IgG2 protein (antibody, V domains shown)
VH: QVQLQESGPGLVKPSQTLSLTCAISGDSVSSNSAAWNWIRQSPSRGLEWLGRTYYRSKWYNDYAVSVKSRMTIKADTSKNQFSLQLNSVTPEDTAVYYCARDEGPLDYWGQGTLVTVSA
VL: QAVLTQPSSVSGAPGQRVTISCTGSSSNLGTGYDVHWYQQLPGTAPKLLIYGNSNRPSGVPDRFSGSKSDTSGLLAITGLQAEDEATYYCQSYDFSLSAMVFGGGTKVTVL
notes: as for B7
- binding result [4]: binds
